The values below are quoted from earlier work in paper doi:10.1101/2025.05.26.656075.

This data set deals with neonatal Fc receptor (FcRn), biotinylated (UniProt P55899+P61769). In words: not stated. The note with it: cited from earlier work.

For “MFc4 (IgG4 monomeric Fc of Shan et al.) L351F;S354E;T366R;P395K;F405R;Y407E;L428M;L432C;H433S;N434Y;Y436L;T437C;delQ438 (as printed)”, the KD (pH 6.0) is reported as 5 nM.
“native dimeric human IgG1 / IgG1 Fc (literature values)”: the KD (pH 6.0) is listed as 2,140 nM, the KD (pH low pH (number not given)) is reported as 1,377 nM and the KD result (pH neutral pH (number not given)) is recorded as “∼88,000 nM”.
